Test results published in PMC5413351 (2017).
Where no end group is shown, it is not given here. fluorescein‑5‑maleimide = fluorescein-5-maleimide

T1: Vps4^101-437 L151D (S. cerevisiae, UniProt P52917 101-437, L151D)
T1 sequence: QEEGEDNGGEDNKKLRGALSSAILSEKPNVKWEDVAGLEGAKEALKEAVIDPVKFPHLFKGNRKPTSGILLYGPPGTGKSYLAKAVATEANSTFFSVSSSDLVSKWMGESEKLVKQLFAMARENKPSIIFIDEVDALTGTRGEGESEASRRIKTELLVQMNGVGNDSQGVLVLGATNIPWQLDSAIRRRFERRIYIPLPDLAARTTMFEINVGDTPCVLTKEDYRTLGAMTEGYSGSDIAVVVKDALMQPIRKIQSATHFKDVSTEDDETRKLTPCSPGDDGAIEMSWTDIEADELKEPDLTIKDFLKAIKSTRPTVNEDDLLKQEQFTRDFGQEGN


Tests used:
Test in all cases: FP
Vps4^101-437-Hcp1 R325D = Vps4^101-437-Hcp1 R325D (S. cerevisiae | Pseudomonas aeruginosa, UniProt P52917 101-437, R325D)
Vps4^101-437-Hcp1 K321A = Vps4^101-437-Hcp1 K321A (S. cerevisiae | Pseudomonas aeruginosa, UniProt P52917 101-437, K321A)
Vps4^101-437-Hcp1 E322A = Vps4^101-437-Hcp1 E322A (S. cerevisiae | Pseudomonas aeruginosa, UniProt P52917 101-437, E322A)
Vps4^101-437-Hcp1 = Vps4^101-437-Hcp1 (S. cerevisiae | Pseudomonas aeruginosa, UniProt P52917 101-437)
Vps4^101-437 L151D = target: T1, Vps4^101-437 L151D

| Binder | Kd (Vps4^101-437-Hcp1 R325D) [nM] | Kd (Vps4^101-437-Hcp1 K321A) [nM] | Kd (Vps4^101-437-Hcp1 E322A) [nM] | Kd (Vps4^101-437-Hcp1) [nM] | Kd (Vps4^101-437 L151D) [nM] |
| --- | --- | --- | --- | --- | --- |
| fluorescently labeled Vta1^VSL S278C (domain or fragment, fluorescein-5-maleimide on the single cysteine (S278C)) MASNAARVVATAKDFDKVGLGIIGYYLQLYAVELILSEEDRSQEMTALATELLDTIEAFKKEIGGESEAEDSDKSLHVMNTLIHDQEKAKIYMLNFTMSLYNEKLKQLKDGPWDVMLKRSLWCCIDLFSCILHLWKENISETSTNSLQKRIKYCKIYLSKLAKGEIGSSDEKTLDYADFADDSEEIKDEDVDHQTSDLENNNNDKVEGLAPKDQTTSYEPVDEVPEFIDDADSVNEEEQTVDKNEDAITKDEQQVVKKEVDLTRPSAPSEPAAAEHKCYTKDELTKIMDRASKIEQIQKLAKYAISALNYEDLPTAKDELTKALDLLNSI | 564 | 367 | 72 | 184 | – |
| fluorescently labeled Vta1^VSL S278C (domain or fragment) C(fluorescein‑5‑maleimide)YTKDELTKIMDRASKIEQIQKLAKYAISALNYEDLPTAKDELTKALDLLNSI | – | – | – | – | 4400 |
